± gives the standard deviation of the averaged measurements.
Tests used:
Saccharomyces cerevisiae [1] = assay: protein stability index of tFT-peptide fusion (C-terminal peptide) (PSI (0-1 scale)); higher = more stable (slower turnover)
Method: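 MPS profiling in S. cerevisiae of the tFT-X12 degron library: putative degron peptides plus stable controls, 12 aa, fused to the C-terminus of a sfGFP-mCherry timer. Cells are FACS-sorted into 8 mCherry/sfGFP bins and deep-sequenced. PSI runs from 0 (unstable) to 1 (stable). Backgrounds are wild type, das1Δ and doa10Δ at 30 °C, and wild type, das1Δ, cdc34-1 and cdc53-1 at 37 °C; 2-3 technical replicates each.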

Saccharomyces cerevisiae [2] = assay: as above; conditions: genetic background: wild type; temperature: 30 C
[3] = genetic background: cdc34-1, temperature: 37 C
[4] = genetic background: cdc53-1, temperature: 37 C
[5] = genetic background: das1 deletion, temperature: 30 C
[6] = genetic background: das1 deletion, temperature: 37 C
[7] = genetic background: doa10 deletion, temperature: 30 C
[8] = genetic background: wild type, temperature: 30 C
[9] = genetic background: wild type, temperature: 37 C
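Note: PSI is a weighted mean of sequencing reads over stability bins, variants kept only with over 10 reads, mCherry proximal and sfGFP distal, peptide attached via GGGS linker.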

Row | Sequence | protein stability index (Saccharomyces cerevisiae [1]; [3]) | protein stability index (Saccharomyces cerevisiae [1]; [4]) | protein stability index (Saccharomyces cerevisiae [1]; [5]) | protein stability index (Saccharomyces cerevisiae [1]; [6]) | protein stability index (Saccharomyces cerevisiae [1]; [7]) | protein stability index (Saccharomyces cerevisiae [1]; [8]) | protein stability index (Saccharomyces cerevisiae [1]; [9]) | protein stability index (Saccharomyces cerevisiae [2])
1 | PRPISRRTLILS | 0.642 ± 0.047 | 0.7053 ± 0.0034 | 0.545 ± 0.026 | 0.721 ± 0.0088 | 0.308 ± 0.0098 | 0.354 ± 0.023 | 0.554 ± 0.02 | 0.472 ± 0.062
2 | PRVPILVVFCSF | 0.423 ± 0.013 | 0.452 ± 0.014 | 0.286 ± 0.041 | 0.532 ± 0.016 | 0.22 ± 0.0097 | 0.257 ± 0.02 | 0.463 ± 0.048 | 0.402 ± 0.063
3 | PSFVEVAFAVCC | 0.569 ± 0.037 | 0.555 ± 0.039 | 0.347 ± 0.045 | 0.5575 ± 0.0034 | 0.339 ± 0.03 | 0.366 ± 0.0077 | 0.541 ± 0.019 | 0.451 ± 0.058
4 | PTKRLFNNNKKI | 0.589 ± 0.13 | 0.686 ± 0.057 | 0.649 ± 0.03 | 0.731 ± 0.013 | 0.184 ± 0.0066 | 0.161 ± 0.03 | 0.408 ± 0.024 | 0.308 ± 0.015
5 | PWAQCVLLWVVV | 0.459 ± 0.043 | 0.495 ± 0.021 | 0.397 ± 0.032 | 0.5401 ± 0.0014 | 0.329 ± 0.015 | 0.359 ± 0.025 | 0.4776 ± 0.004 | 0.457 ± 0.0064
6 | PWIASCRISFLL | 0.6766 ± 0.0032 | 0.734 ± 0.014 | 0.6 ± 0.0099 | 0.7393 ± 0.0037 | 0.338 ± 0.0046 | 0.347 ± 0.012 | 0.532 ± 0.029 | 0.402 ± 0.0046
7 | QARVFWIIIGTA | 0.33 ± 0.029 | 0.412 ± 0.03 | 0.241 ± 0.029 | 0.482 ± 0.011 | 0.163 ± 0.011 | 0.194 ± 0.026 | 0.376 ± 0.023 | 0.343 ± 0.0078
8 | QFLSLSLPFALF | 0.7057 ± 0.0026 | 0.763 ± 0.014 | 0.64 ± 0.029 | 0.748 ± 0.054 | 0.428 ± 0.041 | 0.45 ± 0.019 | 0.636 ± 0.052 | 0.524 ± 0.036
9 | QHIDTLAKTHIT | 0.73 ± 0.036 | 0.74493 ± 0.00055 | 0.632 ± 0.008 | 0.7219 ± 0.005 | 0.605 ± 0.03 | 0.634 ± 0.033 | 0.7 ± 0.012 | 0.606 ± 0.15
10 | QTGRVRGFVVSG | 0.689 ± 0.037 | 0.726 ± 0.024 | 0.632 ± 0.032 | 0.723 ± 0.02 | 0.645 ± 0.021 | 0.65 ± 0.008 | 0.719 ± 0.028 | 0.701 ± 0.048
11 | RALCPVPLLASS | 0.55 ± 0.0098 | 0.59 ± 0.034 | 0.435 ± 0.026 | 0.5981 ± 0.00094 | 0.427 ± 0.026 | 0.455 ± 0.018 | 0.553 ± 0.024 | 0.502 ± 0.1
12 | RCFLPVFCFVVF | 0.275 ± 0.0069 | 0.272 ± 0.0068 | 0.242 ± 0.037 | 0.413 ± 0.006 | 0.278 ± 0.014 | 0.227 ± 0.023 | 0.36 ± 0.0038 | 0.314 ± 0.018
13 | RDWCYFIRVCSV | 0.604 ± 0.064 | 0.616 ± 0.017 | 0.479 ± 0.026 | 0.6139 ± 0.006 | 0.364 ± 0.015 | 0.382 ± 0.021 | 0.561 ± 0.01 | 0.383 ± 0.12
14 | RFACHDFVVLLC | 0.568 ± 0.023 | 0.605 ± 0.022 | 0.453 ± 0.017 | 0.626 ± 0.026 | 0.172 ± 0.0095 | 0.17 ± 0.029 | 0.303 ± 0.017 | 0.289 ± 0.0045
15 | RFFLFVFFCFGF | 0.384 ± 0.0046 | 0.387 ± 0.038 | 0.383 ± 0.034 | 0.4787 ± 0.0021 | 0.402 ± 0.0047 | 0.365 ± 0.045 | 0.437 ± 0.013 | 0.436 ± 0.014
16 | RFLCFDSVLTLC | 0.626 ± 0.011 | 0.6674 ± 0.0055 | 0.56 ± 0.028 | 0.6748 ± 0.00086 | 0.32119 ± 0.00015 | 0.348 ± 0.026 | 0.546 ± 0.02 | 0.463 ± 0.024
17 | RFQKTRIFRCLC | 0.455 ± 0.002 | 0.66 ± 0.015 | 0.57 ± 0.022 | 0.6796 ± 0.0058 | 0.0979 ± 0.0052 | 0.117 ± 0.015 | 0.137 ± 0.0058 | 0.18 ± 0.028
18 | RFTCCISLSFLM | 0.498 ± 0.013 | 0.492 ± 0.044 | 0.467 ± 0.011 | 0.472 ± 0.014 | 0.491 ± 0.059 | 0.489 ± 0.033 | 0.4341 ± 0.0021 | 0.489 ± 0.01
19 | RFTFSVVFCLSF | 0.465 ± 0.011 | 0.5 ± 0.018 | 0.432 ± 0.011 | 0.504 ± 0.023 | 0.451 ± 0.022 | 0.436 ± 0.026 | 0.47 ± 0.012 | 0.47 ± 0.038
20 | RGDWPVFIQVKA | 0.285 ± 0.032 | 0.309 ± 0.04 | 0.262 ± 0.035 | 0.426 ± 0.022 | 0.205 ± 0.022 | 0.255 ± 0.043 | 0.387 ± 0.023 | 0.418 ± 0.05
21 | RGGGGGTWVKMG | 0.592 ± 0.011 | 0.733 ± 0.0075 | 0.653 ± 0.029 | 0.758 ± 0.012 | 0.118 ± 0.025 | 0.135 ± 0.02 | 0.217 ± 0.016 | 0.258 ± 0.055
22 | RHCCIVPLCRVR | 0.491 ± 0.061 | 0.512 ± 0.013 | 0.324 ± 0.028 | 0.555 ± 0.028 | 0.285 ± 0.013 | 0.321 ± 0.028 | 0.507 ± 0.0081 | 0.464 ± 0.045
23 | RHSFSRVKLIQF | 0.593 ± 0.046 | 0.6834 ± 0.00096 | 0.65 ± 0.032 | 0.732 ± 0.0089 | 0.0871 ± 0.021 | 0.0925 ± 0.033 | 0.117 ± 0.0029 | 0.113 ± 0.033
24 | RILKEFKRIAVL | 0.501 ± 0.05 | 0.687 ± 0.092 | 0.479 ± 0.024 | 0.7193 ± 0.006 | 0.093 ± 0.0061 | 0.0985 ± 0.016 | 0.139 ± 0.032 | 0.168 ± 0.031
25 | RIYIRVSLIAPR | 0.523 ± 0.026 | 0.59 ± 0.05 | 0.48 ± 0.021 | 0.5646 ± 0.0015 | 0.496 ± 0.034 | 0.48 ± 0.014 | 0.537 ± 0.017 | 0.509 ± 0.14
26 | RLFMVLYRRFVL | 0.67 ± 0.052 | 0.72 ± 0.013 | 0.626 ± 0.019 | 0.716 ± 0.018 | 0.443 ± 0.015 | 0.45 ± 0.023 | 0.608 ± 0.016 | 0.491 ± 0.069
27 | RLVWGGLEMFVC | 0.511 ± 0.024 | 0.627 ± 0.013 | 0.496 ± 0.026 | 0.654 ± 0.0094 | 0.109 ± 0.019 | 0.131 ± 0.0028 | 0.21 ± 0.0073 | 0.235 ± 0.043
28 | RPALVSIFLSAY | 0.555 ± 0.018 | 0.567 ± 0.023 | 0.4 ± 0.023 | 0.553 ± 0.0066 | 0.38 ± 0.017 | 0.38 ± 0.021 | 0.532 ± 0.0076 | 0.444 ± 0.027
29 | RPLRRPRLPLLL | 0.654 ± 0.014 | 0.698 ± 0.025 | 0.646 ± 0.0082 | 0.6926 ± 0.0026 | 0.363 ± 0.011 | 0.397 ± 0.035 | 0.581 ± 0.01 | 0.4634 ± 0.0032
30 | RQFRNPLYAFVC | 0.496 ± 0.043 | 0.687 ± 0.011 | 0.566 ± 0.019 | 0.697 ± 0.014 | 0.124 ± 0.0069 | 0.137 ± 0.0092 | 0.187 ± 0.035 | 0.193 ± 0.021

From the supplement of paper PMC10724198
